From patent US20060257938A1, “Method of screening for drugs that block ligand binding to a lipid binding protein” (priority 2005, published 2006)

Assays:
Assay type in all cases: binding
Settings in all cases: response relative to ADIFAB2
[1] = Probe fluorescence ratio response to arachidonic acid relative to ADIFAB2
Method in brief: (§1)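 Each fatty acid's response was expressed relative to ADIFAB2, the rI-FABP-L72A probe, as ΔR/ΔRreference. ΔR is the change in the background-corrected two-wavelength intensity ratio R=Fλ1/Fλ2 from its analyte-free baseline R0. Emission was read near about 420-480 nm for unbound and about 495-580 nm for FFA-bound probe.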

[2] = Probe fluorescence ratio response to linolenic acid relative to ADIFAB2
Method in brief: as §1

[3] = Probe fluorescence ratio response to linoleic acid relative to ADIFAB2
Method in brief: as §1

[4] = Probe fluorescence ratio response to oleic acid relative to ADIFAB2
Method in brief: as §1

[5] = Probe fluorescence ratio response to palmitic acid relative to ADIFAB2
Method in brief: as §1

Row | Molecule | DR/DR AA ([1]; Arachidonic acid) | DR/DR LNA [2] | DR/DR LA [3] | DR/DR OA [4] | DR/DR PA [5] | DR/DR AA ([1]; arachidonic acid)
1 | 49F1, 72A (protein, listed as Rattus norvegicus, PEPTIDE (1)...(131) wild-type rat intestinal fatty acid binding protein) AFDGTWKVDRNENYEKFMEKMGINVVKRKLGAHDNLKLTITQEGNKFTFKESSNFRNIDVVFELGVDFAYSAADGTELTGTWTMEGNKLVGKFKRVDNGKELIAVREISGNELIQTYTYEGVEAKRIFKKE | 1.18 | 1.18 | 1.14 | 1.14 | 0.75 | 
2 | 49L1, 72A (protein, listed as Rattus norvegicus, PEPTIDE (1)...(131) wild-type rat intestinal fatty acid binding protein) AFDGTWKVDRNENYEKFMEKMGINVVKRKLGAHDNLKLTITQEGNKFTLKESSNFRNIDVVFELGVDFAYSAADGTELTGTWTMEGNKLVGKFKRVDNGKELIAVREISGNELIQTYTYEGVEAKRIFKKE | 1.76 | 1.77 | 1.81 | 1.67 | 1.00 | 
3 | 102V, 72A (protein, listed as Rattus norvegicus, PEPTIDE (1)...(131) wild-type rat intestinal fatty acid binding protein) AFDGTWKVDRNENYEKFMEKMGINVVKRKLGAHDNLKLTITQEGNKFTVKESSNFRNIDVVFELGVDFAYSAADGTELTGTWTMEGNKLVGKFKRVDNGKEVIAVREISGNELIQTYTYEGVEAKRIFKKE |  | 0.51 | 0.67 | 0.57 | 0.35 | 0.46
4 | 49W1, 72A (protein, listed as Rattus norvegicus, PEPTIDE (1)...(131) wild-type rat intestinal fatty acid binding protein) AFDGTWKVDRNENYEKFMEKMGINVVKRKLGAHDNLKLTITQEGNKFTWKESSNFRNIDVVFELGVDFAYSAADGTELTGTWTMEGNKLVGKFKRVDNGKELIAVREISGNELIQTYTYEGVEAKRIFKKE | 0.58 | 0.58 | 0.58 | 0.56 | 0.35 | 
5 | 49T1, 72A (protein, listed as Rattus norvegicus, PEPTIDE (1)...(131) wild-type rat intestinal fatty acid binding protein) AFDGTWKVDRNENYEKFMEKMGINVVKRKLGAHDNLKLTITQEGNKFTTKESSNFRNIDVVFELGVDFAYSAADGTELTGTWTMEGNKLVGKFKRVDNGKELIAVREISGNELIQTYTYEGVEAKRIFKKE | 0.66 | 0.64 | 0.67 | 0.67 | 0.43 | 
6 | 49R1, 72A (protein, listed as Rattus norvegicus, PEPTIDE (1)...(131) wild-type rat intestinal fatty acid binding protein) AFDGTWKVDRNENYEKFMEKMGINVVKRKLGAHDNLKLTITQEGNKFTRKESSNFRNIDVVFELGVDFAYSAADGTELTGTWTMEGNKLVGKFKRVDNGKELIAVREISGNELIQTYTYEGVEAKRIFKKE | 1.68 | 1.70 | 1.75 | 1.56 | 0.78 | 
7 | 49Y1, 72A (protein, listed as Rattus norvegicus, PEPTIDE (1)...(131) wild-type rat intestinal fatty acid binding protein) AFDGTWKVDRNENYEKFMEKMGINVVKRKLGAHDNLKLTITQEGNKFTYKESSNFRNIDVVFELGVDFAYSAADGTELTGTWTMEGNKLVGKFKRVDNGKELIAVREISGNELIQTYTYEGVEAKRIFKKE | 1.39 | 1.44 | 1.51 | 1.34 | 0.70 | 
8 | 49Q, 72A (protein, listed as Rattus norvegicus, PEPTIDE (1)...(131) wild-type rat intestinal fatty acid binding protein) AFDGTWKVDRNENYEKFMEKMGINVVKRKLGAHDNLKLTITQEGNKFTQKESSNFRNIDVVFELGVDFAYSAADGTELTGTWTMEGNKLVGKFKRVDNGKELIAVREISGNELIQTYTYEGVEAKRIFKKE | 0.62 | 0.55 | 0.58 | 0.56 | 0.43 | 
9 | 49I1, 72A (protein, listed as Rattus norvegicus, PEPTIDE (1)...(131) wild-type rat intestinal fatty acid binding protein) AFDGTWKVDRNENYEKFMEKMGINVVKRKLGAHDNLKLTITQEGNKFTIKESSNFRNIDVVFELGVDFAYSAADGTELTGTWTMEGNKLVGKFKRVDNGKELIAVREISGNELIQTYTYEGVEAKRIFKKE | 1.80 | 1.82 | 1.84 | 1.80 | 1.16 | 
10 | 49Q1, 72A (protein, listed as Rattus norvegicus, PEPTIDE (1)...(131) wild-type rat intestinal fatty acid binding protein) AFDGTWKVDRNENYEKFMEKMGINVVKRKLGAHDNLKLTITQEGNKFTQKESSNFRNIDVVFELGVDFAYSAADGTELTGTWTMEGNKLVGKFKRVDNGKELIAVREISGNELIQTYTYEGVEAKRIFKKE | 0.92 | 1.23 | 1.25 | 1.20 | 0.69 | 
11 | 49S1, 72A (protein, listed as Rattus norvegicus, PEPTIDE (1)...(131) wild-type rat intestinal fatty acid binding protein) AFDGTWKVDRNENYEKFMEKMGINVVKRKLGAHDNLKLTITQEGNKFTSKESSNFRNIDVVFELGVDFAYSAADGTELTGTWTMEGNKLVGKFKRVDNGKELIAVREISGNELIQTYTYEGVEAKRIFKKE | 1.27 | 1.34 | 1.29 | 1.18 | 0.66 | 
12 | 49G1, 72A (protein, listed as Rattus norvegicus, PEPTIDE (1)...(131) wild-type rat intestinal fatty acid binding protein) AFDGTWKVDRNENYEKFMEKMGINVVKRKLGAHDNLKLTITQEGNKFTGKESSNFRNIDVVFELGVDFAYSAADGTELTGTWTMEGNKLVGKFKRVDNGKELIAVREISGNELIQTYTYEGVEAKRIFKKE | 1.26 | 1.25 | 1.29 | 1.15 | 0.64 | 
13 | 49N1, 72A (protein, listed as Rattus norvegicus, PEPTIDE (1)...(131) wild-type rat intestinal fatty acid binding protein) AFDGTWKVDRNENYEKFMEKMGINVVKRKLGAHDNLKLTITQEGNKFTNKESSNFRNIDVVFELGVDFAYSAADGTELTGTWTMEGNKLVGKFKRVDNGKELIAVREISGNELIQTYTYEGVEAKRIFKKE | 1.26 | 1.18 | 1.10 | 1.11 | 0.74 | 
14 | 49P1, 72A (protein, listed as Rattus norvegicus, PEPTIDE (1)...(131) wild-type rat intestinal fatty acid binding protein) AFDGTWKVDRNENYEKFMEKMGINVVKRKLGAHDNLKLTITQEGNKFTPKESSNFRNIDVVFELGVDFAYSAADGTELTGTWTMEGNKLVGKFKRVDNGKELIAVREISGNELIQTYTYEGVEAKRIFKKE | 1.57 | 1.53 | 1.59 | 1.40 | 0.76 | 
15 | 49H1, 72A (protein, listed as Rattus norvegicus, PEPTIDE (1)...(131) wild-type rat intestinal fatty acid binding protein) AFDGTWKVDRNENYEKFMEKMGINVVKRKLGAHDNLKLTITQEGNKFTHKESSNFRNIDVVFELGVDFAYSAADGTELTGTWTMEGNKLVGKFKRVDNGKELIAVREISGNELIQTYTYEGVEAKRIFKKE | 1.47 | 1.54 | 1.58 | 1.39 | 0.75 | 
16 | 49K1, 72A (protein, listed as Rattus norvegicus, PEPTIDE (1)...(131) wild-type rat intestinal fatty acid binding protein) AFDGTWKVDRNENYEKFMEKMGINVVKRKLGAHDNLKLTITQEGNKFTKKESSNFRNIDVVFELGVDFAYSAADGTELTGTWTMEGNKLVGKFKRVDNGKELIAVREISGNELIQTYTYEGVEAKRIFKKE | 1.64 | 1.68 | 1.71 | 1.51 | 0.80 | 
17 | 49M1, 72A (protein, listed as Rattus norvegicus, PEPTIDE (1)...(131) wild-type rat intestinal fatty acid binding protein) AFDGTWKVDRNENYEKFMEKMGINVVKRKLGAHDNLKLTITQEGNKFTMKESSNFRNIDVVFELGVDFAYSAADGTELTGTWTMEGNKLVGKFKRVDNGKELIAVREISGNELIQTYTYEGVEAKRIFKKE | 1.36 | 1.37 | 1.37 | 1.30 | 0.94 | 
